# How the values were obtained:
# [1] = molecular target: HELZ K674N (insect-purified) (human, UniProt P42694 1-1942, K674N); experiment: EMSA; no ATP; 5 nM substrate; comparable to WT; EMSA: 10 mM Tris-HCl pH 7.5, 60 mM KCl, 100 ng/ul BSA, 2 U/ul RNaseIN, 1 mM DTT, 30 min on ice, 5% native TAE gel 4 C; pull-down: 10 mM Tris-HCl pH 7.5, 100 mM; details: protein: recombinant; label: Cy5 at 5' end of RNA; 30 bp hybrid S1[16-45] with S2[31-60]; 15 nt 5' RNA overhang; 30 nt 5' and 30 nt 3' DNA overhangs
# [2] = molecular target: HELZ WT (insect-purified) (human, UniProt P42694 1-1942); experiment: EMSA; no ATP; 5 nM substrate; EMSA: 10 mM Tris-HCl pH 7.5, 60 mM KCl, 100 ng/ul BSA, 2 U/ul RNaseIN, 1 mM DTT, 30 min on ice, 5% native TAE gel 4 C; pull-down: 10 mM Tris-HCl pH 7.5, 100 mM; details: protein: recombinant; label: Cy5 at 5' end of RNA; 30 bp hybrid S1[16-45] with S2[31-60]; 15 nt 5' RNA overhang; 30 nt 5' and 30 nt 3' DNA overhangs
# Sequence of HELZ WT (insect-purified) (P42694 whole entry): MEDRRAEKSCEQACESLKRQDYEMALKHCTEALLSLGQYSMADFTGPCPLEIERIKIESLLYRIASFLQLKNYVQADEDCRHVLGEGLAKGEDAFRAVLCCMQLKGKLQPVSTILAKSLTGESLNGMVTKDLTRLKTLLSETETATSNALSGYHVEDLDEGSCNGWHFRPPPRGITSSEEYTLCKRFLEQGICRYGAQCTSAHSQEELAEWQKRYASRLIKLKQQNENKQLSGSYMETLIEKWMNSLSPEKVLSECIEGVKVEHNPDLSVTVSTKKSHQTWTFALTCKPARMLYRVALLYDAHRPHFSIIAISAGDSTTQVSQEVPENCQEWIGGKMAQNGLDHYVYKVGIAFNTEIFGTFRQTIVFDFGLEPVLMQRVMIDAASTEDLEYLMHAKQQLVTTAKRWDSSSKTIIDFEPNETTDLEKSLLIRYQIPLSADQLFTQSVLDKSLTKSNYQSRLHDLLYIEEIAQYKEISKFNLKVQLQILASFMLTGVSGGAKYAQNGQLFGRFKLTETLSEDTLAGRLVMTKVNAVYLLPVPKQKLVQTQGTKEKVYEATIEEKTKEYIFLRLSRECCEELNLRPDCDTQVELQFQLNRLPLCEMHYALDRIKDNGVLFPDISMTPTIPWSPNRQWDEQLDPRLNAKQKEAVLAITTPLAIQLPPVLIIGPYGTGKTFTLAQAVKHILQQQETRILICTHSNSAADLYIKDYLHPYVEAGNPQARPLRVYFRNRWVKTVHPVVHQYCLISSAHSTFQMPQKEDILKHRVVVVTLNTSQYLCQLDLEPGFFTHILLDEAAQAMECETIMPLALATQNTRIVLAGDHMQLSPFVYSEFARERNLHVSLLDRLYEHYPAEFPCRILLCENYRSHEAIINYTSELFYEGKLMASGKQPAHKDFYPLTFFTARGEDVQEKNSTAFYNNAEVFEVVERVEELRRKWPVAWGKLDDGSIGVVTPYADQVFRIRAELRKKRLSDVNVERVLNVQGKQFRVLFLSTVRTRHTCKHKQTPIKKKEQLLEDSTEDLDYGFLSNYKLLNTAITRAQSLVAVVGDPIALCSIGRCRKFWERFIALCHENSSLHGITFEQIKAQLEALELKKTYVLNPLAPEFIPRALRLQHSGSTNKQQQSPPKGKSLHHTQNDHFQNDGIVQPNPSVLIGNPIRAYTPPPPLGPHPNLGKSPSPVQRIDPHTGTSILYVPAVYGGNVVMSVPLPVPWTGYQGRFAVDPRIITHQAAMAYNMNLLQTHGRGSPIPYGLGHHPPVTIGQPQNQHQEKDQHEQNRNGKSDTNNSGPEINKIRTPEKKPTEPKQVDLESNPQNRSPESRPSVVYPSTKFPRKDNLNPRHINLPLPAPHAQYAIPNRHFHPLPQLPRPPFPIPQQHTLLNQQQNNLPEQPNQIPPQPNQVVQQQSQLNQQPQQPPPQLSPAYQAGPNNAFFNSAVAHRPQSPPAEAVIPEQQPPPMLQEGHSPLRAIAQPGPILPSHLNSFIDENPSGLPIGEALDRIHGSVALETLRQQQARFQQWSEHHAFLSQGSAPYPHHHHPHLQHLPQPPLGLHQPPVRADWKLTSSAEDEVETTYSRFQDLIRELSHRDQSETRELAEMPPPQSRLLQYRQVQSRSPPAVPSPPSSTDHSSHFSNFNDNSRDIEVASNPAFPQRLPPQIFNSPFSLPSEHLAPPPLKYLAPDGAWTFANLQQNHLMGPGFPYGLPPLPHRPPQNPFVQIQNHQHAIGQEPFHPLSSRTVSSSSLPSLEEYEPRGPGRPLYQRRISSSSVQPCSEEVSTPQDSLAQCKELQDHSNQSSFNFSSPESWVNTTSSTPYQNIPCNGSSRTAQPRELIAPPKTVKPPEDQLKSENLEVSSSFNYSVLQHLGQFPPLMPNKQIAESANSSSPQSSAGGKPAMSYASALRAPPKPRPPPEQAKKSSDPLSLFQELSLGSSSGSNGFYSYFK
# Sequence of HELZ K674N (insect-purified) (P42694 whole entry K674N): as the sequence (P42694 whole entry) above, with K674N counted along it
binder,measurement,setting,value
RNA/DNA hybrid with 5' ssRNA overhang (EMSA) (DNA:RNA) RNA: UCGUAGCUCGGGAGUGCACCAGAUUCAGCAAUUAAGCUCUAAGCC DNA: GTCACTTGATAAGAGGTCATTTGAATTCATGGCTTAGAGCTTAATTGCTGAATCTGGTGCTGGGATCCAACATGTTTTAAATATGCAATG,binding result,[1],binds
same,binding result,[2],binds
